Results published in US20230235048A1.

Target: human sortilin on the cell surface (recombinant huSortilin on HEK 293 cells; endogenous on U251MG cells) (human), Q99523
Assay: flow cytometry, hPGRN-biotin on hSortilin HEK cells clone A (note under the bar chart)
Settings: remark: other sources report otherwise

Chain of human sortilin on the cell surface (recombinant huSortilin on HEK 293 cells; endogenous on U251MG cells) (human), Q99523 (Q99523 78-831): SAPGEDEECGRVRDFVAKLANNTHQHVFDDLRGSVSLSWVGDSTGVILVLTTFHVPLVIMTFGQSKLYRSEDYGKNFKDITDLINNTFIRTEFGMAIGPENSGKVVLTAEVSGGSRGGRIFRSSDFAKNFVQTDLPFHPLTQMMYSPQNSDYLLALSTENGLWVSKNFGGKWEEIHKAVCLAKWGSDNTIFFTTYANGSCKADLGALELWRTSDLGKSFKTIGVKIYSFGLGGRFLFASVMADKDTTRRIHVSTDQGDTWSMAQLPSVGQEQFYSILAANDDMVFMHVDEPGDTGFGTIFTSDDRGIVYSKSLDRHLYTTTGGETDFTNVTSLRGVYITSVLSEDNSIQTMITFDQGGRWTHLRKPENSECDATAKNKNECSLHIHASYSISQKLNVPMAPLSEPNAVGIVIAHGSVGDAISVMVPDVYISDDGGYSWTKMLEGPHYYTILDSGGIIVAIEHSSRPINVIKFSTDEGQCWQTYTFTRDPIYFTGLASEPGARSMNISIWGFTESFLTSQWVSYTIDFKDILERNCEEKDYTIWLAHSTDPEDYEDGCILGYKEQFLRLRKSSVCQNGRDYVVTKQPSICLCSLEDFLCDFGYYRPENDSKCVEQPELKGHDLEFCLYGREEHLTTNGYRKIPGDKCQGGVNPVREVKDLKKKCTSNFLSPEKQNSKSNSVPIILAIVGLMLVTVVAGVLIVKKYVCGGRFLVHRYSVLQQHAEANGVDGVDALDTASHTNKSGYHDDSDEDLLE

ED50: 30 nM
B1: human progranulin, biotinylated (huPGRN-Biotin), P28799 18-593 (ligand, UniProt P28799 18-593, looked up)
chain: TRCPDGQFCPVACCLDPGGASYSCCRPLLDKWPTTLSRHLGGPCQVDAHCSAGHSCIFTVSGTSSCCPFPEAVACGDGHHCCPRGFHCSADGRSCFQRSGNNSVGAIQCPDSQFECPDFSTCCVMVDGSWGCCPMPQASCCEDRVHCCPHGAFCDLVHTRCITPTGTHPLAKKLPAQRTNRAVALSSSVMCPDARSRCPDGSTCCELPSGKYGCCPMPNATCCSDHLHCCPQDTVCDLIQSKCLSKENATTDLLTKLPAHTVGDVKCDMEVSCPDGYTCCRLQSGAWGCCPFTQAVCCEDHIHCCPAGFTCDTQKGTCEQGPHQVPWMEKAPAHLSLPDPQALKRDVPCDNVSSCPSSDTCCQLTSGEWGCCPIPEAVCCSDHQHCCPQGYTCVAEGQCQRGSEIVAGLEKMPARRASLSHPRDIGCDQHTSCPVGQTCCPSLGGSWACCQLPHAVCCEDRQHCCPAGYTCNVKARSCEKEVVSAQPATFLARSPHVGVKDVECGEGHFCHDNQTCCRDNRQGWACCPYRQGVCCADRRHCCPAGFRCAARGTKCLRREAPRWDAPLRDPALRQLL
modifications: here or on the partner: biotinylated at a ratio of 5:1 using EZ-Link NHS-PEG4-Biotin
